Assay results as given in US20030134779A1, “Method and composition for treatment and/or prevention of antibiotic-resistant microorganism infections” (priority 2002, published 2003).

Legend:
[1] = test system: β-lactamase activity of S. aureus PC-1; test: β-lactamase activity, nitrocefin assay, bovine LF/LFC; format: cell-based; conditions: LF 1 mg/ml (P<0.05); LFC 32 or 64 μg/ml (P<0.001)
Experimental: (§1) The effects of sub-MICs of LF (1 mg/ml), LFC (32 and 64 μg/ml) alone or in combination with ampicillin (4μg/ml) or penicillin G (8 μg/ml) were evaluated on the β-lactamase activity of S. aureus strains SHY97-4320 and PC-1. The chromogenic cephalosporin nitrocefin (Becton Dickinson, Microbiology, Cockeysville, Md.) was used in a quantitative spectrophotometric assay. Bacterial cells were first exposed during 4 and 22-h to drugs in broth. The number of bacteria (cfu/ml) were determined and cells aliquots were centrifuged at each point in time. The pellets were suspended in 10 mM HEPES buffer (pH 7.4) to an OD415 nm of 1 for PC-1 and 2 for SHY97-4320. Nitrocefin (100 μM) was added to 100 μl of cells in a final volume of 1 ml. Hydrolysis was measured at 486 nm on spectrophotometer. β-lactamase activity was expressed as ΔO.D.486 nm/min and corrected for bacterial OD.

[2] = test system: β-lactamase activity of S. aureus SHY97-4320; test: as above; format: cell-based
Experimental: as §1

[3] = test system: β-lactamase induction in S. aureus SHY97-4320; test: Induction of β-lactamase after LF pre-incubation (signal transduction); format: cell-based, Staphylococcus aureus; conditions: LF 1 mg/ml added 30 or 60 min before 8 μg/ml penicillin G, 4 h
Experimental: As the β-lactamase system is the best-known signal transduction system in S. aureus. We tested the ability of LF to inhibit signal transduction in S. aureus SHY97-4320 which is an inducible beta-lactamase producing strain. Bacterial cells were first exposed during 30 or 60 min to LF in broth and were further treated with 8 μg/ml of penicillin G for an additional 4 h. The cfu/ml were determined, cells aliquots were centrifuged and pellets were suspended in 10 mM HEPES buffer (pH 7.4) as mentioned above. Nitrocefin (100 μM) was added to 20 μl of cells in a final volume of 200 μl. Hydrolysis was measured at 486 nm on a Spectra Max 250 Microplate Spectrophotometer System of Molecular Device (Fisher Scientific, Ottawa, Canada). β-Lactamase activity was expressed as ΔO.D.486 nm/min and corrected for bacterial OD.

[4] = test system: β-lactamase (BlaZ) gene expression in S. aureus strain SHY97-4320; test: BlaZ gene expression, real-time quantitative RT-PCR, and total RNA; format: cell-based, Staphylococcus aureus
Experimental: Fresh MHB containing or not 8 μg/ml of penicillin G and/or 1 mg/ml of bovine LF (2×2 factorial design) was adjusted to an optical density at 540 nm of 0.04 with an overnight culture of S. aureus and then incubated at 37° C. with agitation (150 rpm). After 4 and 22-h of incubation, aliquots were removed to determine bacterial growth by viable count (colony forming unit per ml, cfu/ml), measuring the culture turbidity (OD540nm) with a spectrophotometer Philips PU and to measure β-lactamase activity in bacterial cells. Following culture under the same condition, bacterial cells were collected for RNA extraction.
Total bacterial RNA was prepared using the RNeasy minikit (Qiagen, Mississauga, ON, Canada). Washed bacteria were first treated with 50 μg/ml of lysostaphin (GramCracker, Ambion, Austin, Tex.) for 10 min at 37° C. and RNA was purified according to the manufacturer's protocol. Contaminating DNA was removed from total RNA by using 1 U of Rnase-free Dnase I (Gibco Life Technologies, Grand Island, N.Y.) in a 10 μl reaction mixture containing approximately 50 ng of total RNA per μl and 20mM Tris-HCl (pH 8.4), 2 mM MgCl2 and 50 mM KCl. The reaction mixture was incubated for 15 min at room temperature, and the Dnase I was inactivated by adding 1 μl of 25 mM EDTA to the mixture and incubating for 10 min at 65° C. before assessing quantity and purity. Amount of cellular RNA was then determined by measuring the OD260 nm and OD280 nm.
Real-Time fluorescence-based 5′ nuclease PCR which is a widely accepted method for measuring gene expression levels was used to quantify β-lactamase BlaZ RNA by RT-PCR on ABI Prism™ 7700 (TaqMan® ) sequence detector (PE Applied Biosystem, Foster City, Calif.). The forward primer, reverse.primer, and TaqMan probe for Real-Time RT-PCR amplification were designed with the PrimerExpress software (PE Applied Biosystem) to specifically amplify the. S. aureus BLAZ gene. Briefly, RNA (50 ng) was added to a 50 μl reaction mixture containing 25 μl of 2×RT-PCR One-Step Universal Master Mix, 1.25 μl of 40×MultiScribe and Rnase Inhibitor Mix, 4.5 μl of the forward primer (10 μM, 5′-[…]-3′, SEQ ID NO:3), 4.5 μl of the reverse primer (10 μM, 5′-[…]-3′, SEQ ID NO:4), and 1.25 μl of TaqMan probe (10 μM, 6FAM-[…]-TAMRA, SEQ ID NO:5). Reverse transcription with the recombinant Moloney Murine Leukemia Virus (M-MuLV) Reverse Transcriptase (0.25 U/μl) was conducted at 48° C. for 30 min. After initial activation of AmpliTaq Gold DNA polymerase (1.25 U/μl) at 95° C. for 10 min, 40 PCR cycles of 95° C. for 15 s and 60° C. for 1 min were performed. The cycle threshold value (CT), indicative of the quantity of target gene at which the fluorescence exceeds a pre-set threshold, was determined and compared to the CT of a standard curve containing known amounts of mRNA (1.1×10^2 to 1.1×10^9) from the BLAZ gene of S. aureus obtained by in vitro transcription. Statistical analysis were done on the LOG 10 of number of copies.

Sequence of β-lactamase activity of S. aureus SHY97-4320 (P00807 25-281): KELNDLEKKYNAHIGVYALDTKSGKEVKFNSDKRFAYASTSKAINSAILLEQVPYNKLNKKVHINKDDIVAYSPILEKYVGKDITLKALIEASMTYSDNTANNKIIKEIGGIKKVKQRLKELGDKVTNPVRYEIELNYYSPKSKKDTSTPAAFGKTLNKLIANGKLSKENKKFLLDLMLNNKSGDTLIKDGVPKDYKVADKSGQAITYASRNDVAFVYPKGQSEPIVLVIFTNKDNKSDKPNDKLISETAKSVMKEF
Sequence of β-lactamase activity of S. aureus PC-1 (P00807 25-281): as above

B1: LF: bovine lactoferrin, 80-kDa iron-binding glycoprotein found in milk (protein, UniProt P24627 20-708, looked up)
Lactotransferrin: APRKNVRWCTISQPEWFKCRRWQWRMKKLGAPSITCVRRAFALECIRAIAEKKADAVTLDGGMVFEAGRDPYKLRPVAAEIYGTKESPQTHYYAVAVVKKGSNFQLDQLQGRKSCHTGLGRSAGWIIPMGILRPYLSWTESLEPLQGAVAKFFSASCVPCIDRQAYPNLCQLCKGEGENQCACSSREPYFGYSGAFKCLQDGAGDVAFVKETTVFENLPEKADRDQYELLCLNNSRAPVDAFKECHLAQVPSHAVVARSVDGKEDLIWKLLSKAQEKFGKNKSRSFQLFGSPPGQRDLLFKDSALGFLRIPSKVDSALYLGSRYLTTLKNLRETAEEVKARYTRVVWCAVGPEEQKKCQQWSQQSGQNVTCATASTTDDCIVLVLKGEADALNLDGGYIYTAGKCGLVPVLAENRKSSKHSSLDCVLRPTEGYLAVAVVKKANEGLTWNSLKDKKSCHTAVDRTAGWNIPMGLIVNQTGSCAFDEFFSQSCAPGADPKSRLCALCAGDDQGLDKCVPNSKEKYYGYTGAFRCLAEDVGDVAFVKNDTVWENTNGESTADWAKNLNREDFRLLCLDGTRKPVTEAQSCHLAVAPNHAVVSRSDRAAHVKQVLLHQQALFGKNGKNCPDKFCLFKSETKNLLFNDNTECLAKLGGRPTYEEYLGTEYVTAIANLKKCSTSPLLEACAFLTR
β-lactamase activity [1]: moderately reduces β-lactamase activity | β-lactamase activity ([2]; LF 1 mg/ml alone): no β-lactamase activity | β-lactamase activity ([2]; LF 1 mg/ml in combination with 8 μg/ml penicillin G, P<0.001): a significant reduction of β-lactamase activity | induction of β-lactamase by penicillin G [3]: completely block induction of β-lactamase | BlaZ total: total number of copies of BlaZ gene mRNA/ml of culture ([4]; LF 1 mg/ml and/or penicillin G): 5.6 × 10^5 copies/ml of culture | BlaZ: number of copies of BlaZ gene mRNA/50 ng of mRNA ([4]; LF 1 mg/ml and/or penicillin G): 1.4 × 10^4 copies/50 ng of mRNA | reduction of the mRNA level in bacteria ([4]; LF, P<0.001): 35% | RNA ([4]; adjusted for an OD540nm of 1.0, LF 1 mg/ml and/or penicillin G): 1.88 ± 0.68 :g/ml | penicillin G-induced increase of BlaZ mRNA ([4]; simultaneous addition of 1 mg/ml of LF): completely prevented
